Test results: publication PMC4565669, “Insulin and mTOR Pathway Regulate HDAC3-Mediated Deacetylation and Activation of PGK1” (PLoS Biology, 2015)

Legend:
[1] = target: PGK1 (UniProt P00558); experiment: co-IP of HA-HDAC3, PGK1 blot; details: reference: wild type HA-HDAC3; sites S424
[2] = target: PGK1 (UniProt P00558); experiment: co-IP with HA beads, Flag blot; details: reference: wild type HDAC3, insulin-treated; sites S424
[3] = target: T1, GST-HDAC3 (recombinant) (UniProt O15379-1 1-428); experiment: pull-down; in vitro pull-down with recombinant GST-HDAC3 (30 ug) and His-PGK1 (10 ug) purified from E. coli; details in S1 Text; details: both partners purified
T1 construct: source: E. coli, purified
T1 sequence (O15379 whole entry): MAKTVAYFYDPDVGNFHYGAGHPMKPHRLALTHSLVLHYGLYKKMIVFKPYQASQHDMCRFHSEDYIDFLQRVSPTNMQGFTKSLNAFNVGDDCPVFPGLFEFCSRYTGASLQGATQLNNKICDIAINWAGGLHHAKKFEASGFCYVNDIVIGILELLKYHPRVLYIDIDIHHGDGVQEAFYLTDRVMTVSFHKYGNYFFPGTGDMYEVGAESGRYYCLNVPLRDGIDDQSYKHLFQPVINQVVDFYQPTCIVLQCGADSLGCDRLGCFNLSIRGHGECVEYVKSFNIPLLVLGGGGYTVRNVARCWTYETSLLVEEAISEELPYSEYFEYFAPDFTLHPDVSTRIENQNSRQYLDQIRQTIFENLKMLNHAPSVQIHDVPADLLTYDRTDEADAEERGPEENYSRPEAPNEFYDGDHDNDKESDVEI

## HDAC3 (from UniProt O15379) S424A
[1]
  binding against the reference: weaker

## HDAC3 (from UniProt O15379) S424A, insulin-treated
[2]
  binding against the reference: weaker

B1: His-PGK1 (recombinant) (enzyme, human, UniProt P00558 1-417, looked up)
chain: MSLSNKLTLDKLDVKGKRVVMRVDFNVPMKNNQITNNQRIKAAVPSIKFCLDNGAKSVVLMSHLGRPDGVPMPDKYSLEPVAVELKSLLGKDVLFLKDCVGPEVEKACANPAAGSVILLENLRFHVEEEGKGKDASGNKVKAEPAKIEAFRASLSKLGDVYVNDAFGTAHRAHSSMVGVNLPQKAGGFLMKKELNYFAKALESPERPFLAILGGAKVADKIQLINNMLDKVNEMIIGGGMAFTFLKVLNNMEIGTSLFDEEGAKIVKDLMSKAEKNGVKITLPVDFVTADKFDENAKTGQATVASGIPAGWMGLDCGPESSKKYAEAVTRAKQIVWNGPVGVFEWEAFARGTKALMDEVVKATSRGCITIIGGGDTATCCAKWNTEDKVSHVSTGGGASLELLEGKVLPGVDALSNI
notes: Phosphoglycerate kinase 1 (PGK1), human, Gene ID 5230; unacetylated recombinant protein; also called His-tagged PGK1; source: E. coli, purified
[3]
  binding result: binds
